B1: PTPRD (parent)
chain: LTKLREMGREKCHQYWPAERSARY

Variants of: B1
Assay: protein stability index of a GFP-peptide fusion (GPS, HEK-293T) (PSI 1-6); higher = more stable
Settings: c terminus: a fixed tail appended
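Also: lentivirally expressed fusions sorted by FACS into six bins by GFP to DsRed ratio, PSI derived from sequencing read proportions per bin multiplied by bin number.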

Going from LTDLREMGREKCHQYWPAERSARY [K3D] to LTILREMGREKCHQYWPAERSARY [K3I], the protein stability index falls from 2.9 to 2.08.

First: LTNLREMGREKCHQYWPAERSARY [K3N]
Second: LTRLREMGREKCHQYWPAERSARY [K3R]
The protein stability index of the first is higher: 3.09 for the first, 2.43 for the second.

Going from LTFLREMGREKCHQYWPAERSARY [K3F] to LTWLREMGREKCHQYWPAERSARY [K3W], the protein stability index falls from 2.4 to 1.88.

Compared with LTSLREMGREKCHQYWPAERSARY [K3S], LTHLREMGREKCHQYWPAERSARY [K3H] is lower in protein stability index: 2.73 for the first, 2.41 for the second.

Compared with LTELREMGREKCHQYWPAERSARY [K3E], LTCLREMGREKCHQYWPAERSARY [K3C] is lower in protein stability index: 3.3 for the first, 2.34 for the second.

Compared with LTGLREMGREKCHQYWPAERSARY [K3G], LTYLREMGREKCHQYWPAERSARY [K3Y] is lower in protein stability index: 2.64 for the first, 2.44 for the second.

Going from LTALREMGREKCHQYWPAERSARY [K3A] to LTLLREMGREKCHQYWPAERSARY [K3L], the protein stability index falls from 2.7 to 2.21.

Going from LTMLREMGREKCHQYWPAERSARY [K3M] to LTQLREMGREKCHQYWPAERSARY [K3Q], the protein stability index falls from 2.41 to 2.33.

First: LTPLREMGREKCHQYWPAERSARY [K3P]
Second: LTVLREMGREKCHQYWPAERSARY [K3V]
The protein stability index of the first is higher: 2.66 for the first, 1.92 for the second.

First: LTTLREMGREKCHQYWPAERSARY [K3T]
Second: LTKLREMGRENCHQYWPAERSARY [K11N]
The protein stability index of the first is lower: 2.63 for the first, 2.74 for the second.

Compared with LTKLREMGREMCHQYWPAERSARY [K11M], LTKLREMGRETCHQYWPAERSARY [K11T] is lower in protein stability index: 2.64 for the first, 2.5 for the second.

Compared with LTKLREMGREHCHQYWPAERSARY [K11H], LTKLREMGREFCHQYWPAERSARY [K11F] is lower in protein stability index: 2.4 for the first, 2.14 for the second.

First: LTKLREMGRELCHQYWPAERSARY [K11L]
Second: LTKLREMGREDCHQYWPAERSARY [K11D]
The protein stability index of the first is lower: 2.21 for the first, 3.21 for the second.

Compared with LTKLREMGREVCHQYWPAERSARY [K11V], LTKLREMGRESCHQYWPAERSARY [K11S] is lower in protein stability index: 2.53 for the first, 2.4 for the second.

First: LTKLREMGREECHQYWPAERSARY [K11E]
Second: LTKLREMGREGCHQYWPAERSARY [K11G]
The protein stability index of the first is higher: 3.17 for the first, 2.61 for the second.

First: LTKLREMGREPCHQYWPAERSARY [K11P]
Second: LTKLREMGREACHQYWPAERSARY [K11A]
The protein stability index of the first is lower: 2.6 for the first, 3.23 for the second.

Compared with LTKLREMGREWCHQYWPAERSARY [K11W], LTKLREMGREICHQYWPAERSARY [K11I] is higher in protein stability index: 1.89 for the first, 2.53 for the second.

First: LTKLREMGRECCHQYWPAERSARY [K11C]
Second: LTKLREMGREYCHQYWPAERSARY [K11Y]
The protein stability index of the first is lower: 2.34 for the first, 2.39 for the second.

Compared with LTKLREMGRERCHQYWPAERSARY [K11R], LTKLREMGREQCHQYWPAERSARY [K11Q] is higher in protein stability index: 2.26 for the first, 2.44 for the second.

Going from LTKLNEMGREKCHQYWPAERSARY [R5N] to LTKLFEMGREKCHQYWPAERSARY [R5F], the protein stability index falls from 2.76 to 2.21.

Going from LTKLAEMGREKCHQYWPAERSARY [R5A] to LTKLPEMGREKCHQYWPAERSARY [R5P], the protein stability index rises from 2.53 to 2.75.

First: LTKLVEMGREKCHQYWPAERSARY [R5V]
Second: LTKLIEMGREKCHQYWPAERSARY [R5I]
The protein stability index of the first is lower: 2.18 for the first, 2.44 for the second.

Compared with LTKLKEMGREKCHQYWPAERSARY [R5K], LTKLTEMGREKCHQYWPAERSARY [R5T] is higher in protein stability index: 2.29 for the first, 2.38 for the second.

Going from LTKLMEMGREKCHQYWPAERSARY [R5M] to LTKLWEMGREKCHQYWPAERSARY [R5W], the protein stability index falls from 2.39 to 2.24.

Going from LTKLSEMGREKCHQYWPAERSARY [R5S] to LTKLCEMGREKCHQYWPAERSARY [R5C], the protein stability index falls from 3.17 to 2.62.

Going from LTKLGEMGREKCHQYWPAERSARY [R5G] to LTKLQEMGREKCHQYWPAERSARY [R5Q], the protein stability index falls from 3.18 to 2.91.

Compared with LTKLLEMGREKCHQYWPAERSARY [R5L], LTKLDEMGREKCHQYWPAERSARY [R5D] is higher in protein stability index: 2.4 for the first, 3.32 for the second.

Compared with LTKLYEMGREKCHQYWPAERSARY [R5Y], LTKLHEMGREKCHQYWPAERSARY [R5H] is higher in protein stability index: 2.23 for the first, 2.58 for the second.

Going from LTKLEEMGREKCHQYWPAERSARY [R5E] to LTKLREMAREKCHQYWPAERSARY [G8A], the protein stability index falls from 3.16 to 2.02.

Compared with LTKLREMTREKCHQYWPAERSARY [G8T], LTKLREMMREKCHQYWPAERSARY [G8M] is lower in protein stability index: 2.95 for the first, 2.07 for the second.

Going from LTKLREMQREKCHQYWPAERSARY [G8Q] to LTKLREMFREKCHQYWPAERSARY [G8F], the protein stability index falls from 3.13 to 1.73.

Going from LTKLREMSREKCHQYWPAERSARY [G8S] to LTKLREMKREKCHQYWPAERSARY [G8K], the protein stability index rises from 1.94 to 2.04.

Going from LTKLREMIREKCHQYWPAERSARY [G8I] to LTKLREMDREKCHQYWPAERSARY [G8D], the protein stability index rises from 1.29 to 3.22.

Compared with LTKLREMEREKCHQYWPAERSARY [G8E], LTKLREMNREKCHQYWPAERSARY [G8N] is lower in protein stability index: 2.65 for the first, 2.29 for the second.

First: LTKLREMPREKCHQYWPAERSARY [G8P]
Second: LTKLREMRREKCHQYWPAERSARY [G8R]
The protein stability index of the first is lower: 2.44 for the first, 2.53 for the second.

Compared with LTKLREMHREKCHQYWPAERSARY [G8H], LTKLREMWREKCHQYWPAERSARY [G8W] is lower in protein stability index: 1.93 for the first, 1.85 for the second.

Compared with LTKLREMVREKCHQYWPAERSARY [G8V], LTKLREMLREKCHQYWPAERSARY [G8L] is lower in protein stability index: 2.58 for the first, 1.67 for the second.

Going from LTKLREMYREKCHQYWPAERSARY [G8Y] to LTKLREMCREKCHQYWPAERSARY [G8C], the protein stability index rises from 2.03 to 2.39.

Going from LNKLREMGREKCHQYWPAERSARY [T2N] to LGKLREMGREKCHQYWPAERSARY [T2G], the protein stability index rises from 2.29 to 2.77.

Compared with LWKLREMGREKCHQYWPAERSARY [T2W], LSKLREMGREKCHQYWPAERSARY [T2S] is higher in protein stability index: 1.78 for the first, 2.16 for the second.

First: LQKLREMGREKCHQYWPAERSARY [T2Q]
Second: LPKLREMGREKCHQYWPAERSARY [T2P]
The protein stability index of the first is higher: 2.95 for the first, 2.53 for the second.

Compared with LVKLREMGREKCHQYWPAERSARY [T2V], LRKLREMGREKCHQYWPAERSARY [T2R] is higher in protein stability index: 1.99 for the first, 2.3 for the second.

Compared with LHKLREMGREKCHQYWPAERSARY [T2H], LMKLREMGREKCHQYWPAERSARY [T2M] is higher in protein stability index: 2.25 for the first, 2.29 for the second.

First: LYKLREMGREKCHQYWPAERSARY [T2Y]
Second: LKKLREMGREKCHQYWPAERSARY [T2K]
The protein stability index of the first is lower: 1.97 for the first, 2.92 for the second.

First: LIKLREMGREKCHQYWPAERSARY [T2I]
Second: LLKLREMGREKCHQYWPAERSARY [T2L]
The protein stability index of the first is higher: 2.22 for the first, 2.15 for the second.

First: LTKLRPMGREKCHQYWPAERSARY [E6P]
Second: LTKLRDMGREKCHQYWPAERSARY [E6D]
The protein stability index of the first is lower: 2.33 for the first, 2.66 for the second.

Compared with LTKLRNMGREKCHQYWPAERSARY [E6N], LTKLRHMGREKCHQYWPAERSARY [E6H] is higher in protein stability index: 1.8 for the first, 2.09 for the second.

Source: the supplement of paper PMC10567573
